Test results as given in article PMC12416549 (2024).

T1: TNFR1 (Homo sapiens, UniProt P19438)
T1 chain: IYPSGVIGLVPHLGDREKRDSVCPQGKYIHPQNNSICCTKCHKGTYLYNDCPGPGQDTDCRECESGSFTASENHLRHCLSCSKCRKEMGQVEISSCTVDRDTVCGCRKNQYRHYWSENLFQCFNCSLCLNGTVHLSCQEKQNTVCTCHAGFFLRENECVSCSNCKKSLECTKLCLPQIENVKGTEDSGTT


Molecular target: T1, TNFR1
Assay: yeast display SC50

Binder	apparent Kd (screen) [nM]
L25W (designed binder) SMEEEVEKAAKEYEKKKKEAIEKHWEKLKAKDKEAAERFLKELEEAAKEYAKDEAKTMSEEEAKRRAKKYKEKVLLSELSEEEQKEIKEAEEKLVRTILKYVEEAAK	0.446
V6Q (designed binder) SMEEEQEKAAKEYEKKKKEAIEKHLEKLKAKDKEAAERFLKELEEAAKEYAKDEAKTMSEEEAKRRAKKYKEKVLLSELSEEEQKEIKEAEEKLVRTILKYVEEAAK	6.43
A9C (designed binder) SMEEEVEKCAKEYEKKKKEAIEKHLEKLKAKDKEAAERFLKELEEAAKEYAKDEAKTMSEEEAKRRAKKYKEKVLLSELSEEEQKEIKEAEEKLVRTILKYVEEAAK	0.446
K16G (designed binder) SMEEEVEKAAKEYEKGKKEAIEKHLEKLKAKDKEAAERFLKELEEAAKEYAKDEAKTMSEEEAKRRAKKYKEKVLLSELSEEEQKEIKEAEEKLVRTILKYVEEAAK	0.49
L79V (designed binder) SMEEEVEKAAKEYEKKKKEAIEKHLEKLKAKDKEAAERFLKELEEAAKEYAKDEAKTMSEEEAKRRAKKYKEKVLLSEVSEEEQKEIKEAEEKLVRTILKYVEEAAK	1.27
S77E (designed binder) SMEEEVEKAAKEYEKKKKEAIEKHLEKLKAKDKEAAERFLKELEEAAKEYAKDEAKTMSEEEAKRRAKKYKEKVLLEELSEEEQKEIKEAEEKLVRTILKYVEEAAK	0.869
A35G (designed binder) SMEEEVEKAAKEYEKKKKEAIEKHLEKLKAKDKEGAERFLKELEEAAKEYAKDEAKTMSEEEAKRRAKKYKEKVLLSELSEEEQKEIKEAEEKLVRTILKYVEEAAK	1.16
K16C (designed binder) SMEEEVEKAAKEYEKCKKEAIEKHLEKLKAKDKEAAERFLKELEEAAKEYAKDEAKTMSEEEAKRRAKKYKEKVLLSELSEEEQKEIKEAEEKLVRTILKYVEEAAK	1.05
E42H (designed binder) SMEEEVEKAAKEYEKKKKEAIEKHLEKLKAKDKEAAERFLKHLEEAAKEYAKDEAKTMSEEEAKRRAKKYKEKVLLSELSEEEQKEIKEAEEKLVRTILKYVEEAAK	5.84
E42C (designed binder) SMEEEVEKAAKEYEKKKKEAIEKHLEKLKAKDKEAAERFLKCLEEAAKEYAKDEAKTMSEEEAKRRAKKYKEKVLLSELSEEEQKEIKEAEEKLVRTILKYVEEAAK	22.2
E37C (designed binder) SMEEEVEKAAKEYEKKKKEAIEKHLEKLKAKDKEAACRFLKELEEAAKEYAKDEAKTMSEEEAKRRAKKYKEKVLLSELSEEEQKEIKEAEEKLVRTILKYVEEAAK	0.49
K33L (designed binder) SMEEEVEKAAKEYEKKKKEAIEKHLEKLKAKDLEAAERFLKELEEAAKEYAKDEAKTMSEEEAKRRAKKYKEKVLLSELSEEEQKEIKEAEEKLVRTILKYVEEAAK	0.653
Y101L (designed binder) SMEEEVEKAAKEYEKKKKEAIEKHLEKLKAKDKEAAERFLKELEEAAKEYAKDEAKTMSEEEAKRRAKKYKEKVLLSELSEEEQKEIKEAEEKLVRTILKLVEEAAK	0.405
E104R (designed binder) SMEEEVEKAAKEYEKKKKEAIEKHLEKLKAKDKEAAERFLKELEEAAKEYAKDEAKTMSEEEAKRRAKKYKEKVLLSELSEEEQKEIKEAEEKLVRTILKYVERAAK	0.446
L25D (designed binder) SMEEEVEKAAKEYEKKKKEAIEKHDEKLKAKDKEAAERFLKELEEAAKEYAKDEAKTMSEEEAKRRAKKYKEKVLLSELSEEEQKEIKEAEEKLVRTILKYVEEAAK	2.73
V95W (designed binder) SMEEEVEKAAKEYEKKKKEAIEKHLEKLKAKDKEAAERFLKELEEAAKEYAKDEAKTMSEEEAKRRAKKYKEKVLLSELSEEEQKEIKEAEEKLWRTILKYVEEAAK	13.8
L94M (designed binder) SMEEEVEKAAKEYEKKKKEAIEKHLEKLKAKDKEAAERFLKELEEAAKEYAKDEAKTMSEEEAKRRAKKYKEKVLLSELSEEEQKEIKEAEEKMVRTILKYVEEAAK	1.86

Binder	apparent Kd (screen) [nM]
A30Y (designed binder) SMEEEVEKAAKEYEKKKKEAIEKHLEKLKYKDKEAAERFLKELEEAAKEYAKDEAKTMSEEEAKRRAKKYKEKVLLSELSEEEQKEIKEAEEKLVRTILKYVEEAAK	0.446
V95C (designed binder) SMEEEVEKAAKEYEKKKKEAIEKHLEKLKAKDKEAAERFLKELEEAAKEYAKDEAKTMSEEEAKRRAKKYKEKVLLSELSEEEQKEIKEAEEKLCRTILKYVEEAAK	11.4
E83S (designed binder) SMEEEVEKAAKEYEKKKKEAIEKHLEKLKAKDKEAAERFLKELEEAAKEYAKDEAKTMSEEEAKRRAKKYKEKVLLSELSEESQKEIKEAEEKLVRTILKYVEEAAK	0.869
M58K (designed binder) SMEEEVEKAAKEYEKKKKEAIEKHLEKLKAKDKEAAERFLKELEEAAKEYAKDEAKTKSEEEAKRRAKKYKEKVLLSELSEEEQKEIKEAEEKLVRTILKYVEEAAK	16.7
V6G (designed binder) SMEEEGEKAAKEYEKKKKEAIEKHLEKLKAKDKEAAERFLKELEEAAKEYAKDEAKTMSEEEAKRRAKKYKEKVLLSELSEEEQKEIKEAEEKLVRTILKYVEEAAK	2.48
V74H (designed binder) SMEEEVEKAAKEYEKKKKEAIEKHLEKLKAKDKEAAERFLKELEEAAKEYAKDEAKTMSEEEAKRRAKKYKEKHLLSELSEEEQKEIKEAEEKLVRTILKYVEEAAK	6.43
A36K (designed binder) SMEEEVEKAAKEYEKKKKEAIEKHLEKLKAKDKEAKERFLKELEEAAKEYAKDEAKTMSEEEAKRRAKKYKEKVLLSELSEEEQKEIKEAEEKLVRTILKYVEEAAK	0.49
V102L (designed binder) SMEEEVEKAAKEYEKKKKEAIEKHLEKLKAKDKEAAERFLKELEEAAKEYAKDEAKTMSEEEAKRRAKKYKEKVLLSELSEEEQKEIKEAEEKLVRTILKYLEEAAK	3
L75K (designed binder) SMEEEVEKAAKEYEKKKKEAIEKHLEKLKAKDKEAAERFLKELEEAAKEYAKDEAKTMSEEEAKRRAKKYKEKVKLSELSEEEQKEIKEAEEKLVRTILKYVEEAAK	1.69
S1W (designed binder) WMEEEVEKAAKEYEKKKKEAIEKHLEKLKAKDKEAAERFLKELEEAAKEYAKDEAKTMSEEEAKRRAKKYKEKVLLSELSEEEQKEIKEAEEKLVRTILKYVEEAAK	3.63
K15E (designed binder) SMEEEVEKAAKEYEEKKKEAIEKHLEKLKAKDKEAAERFLKELEEAAKEYAKDEAKTMSEEEAKRRAKKYKEKVLLSELSEEEQKEIKEAEEKLVRTILKYVEEAAK	0.869
A20P (designed binder) SMEEEVEKAAKEYEKKKKEPIEKHLEKLKAKDKEAAERFLKELEEAAKEYAKDEAKTMSEEEAKRRAKKYKEKVLLSELSEEEQKEIKEAEEKLVRTILKYVEEAAK	3.63
L99F (designed binder) SMEEEVEKAAKEYEKKKKEAIEKHLEKLKAKDKEAAERFLKELEEAAKEYAKDEAKTMSEEEAKRRAKKYKEKVLLSELSEEEQKEIKEAEEKLVRTIFKYVEEAAK	9.41
V74L (designed binder) SMEEEVEKAAKEYEKKKKEAIEKHLEKLKAKDKEAAERFLKELEEAAKEYAKDEAKTMSEEEAKRRAKKYKEKLLLSELSEEEQKEIKEAEEKLVRTILKYVEEAAK	0.49
L28C (designed binder) SMEEEVEKAAKEYEKKKKEAIEKHLEKCKAKDKEAAERFLKELEEAAKEYAKDEAKTMSEEEAKRRAKKYKEKVLLSELSEEEQKEIKEAEEKLVRTILKYVEEAAK	0.49
K29F (designed binder) SMEEEVEKAAKEYEKKKKEAIEKHLEKLFAKDKEAAERFLKELEEAAKEYAKDEAKTMSEEEAKRRAKKYKEKVLLSELSEEEQKEIKEAEEKLVRTILKYVEEAAK	1.05
